T1: S. pombe Php4 (WT), 6xHis-tagged (S. pombe, UniProt O14318 1-295)
T1 sequence (looked up): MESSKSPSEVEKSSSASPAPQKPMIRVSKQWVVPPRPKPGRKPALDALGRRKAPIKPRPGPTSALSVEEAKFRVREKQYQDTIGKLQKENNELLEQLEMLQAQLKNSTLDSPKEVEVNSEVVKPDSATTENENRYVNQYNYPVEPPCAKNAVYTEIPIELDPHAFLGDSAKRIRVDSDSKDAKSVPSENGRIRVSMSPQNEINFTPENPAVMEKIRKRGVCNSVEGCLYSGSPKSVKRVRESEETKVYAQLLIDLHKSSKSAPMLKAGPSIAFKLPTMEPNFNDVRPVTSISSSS

B1: S. pombe Grx4 (WT) (natural protein, UniProt O74790 1-244, looked up)
chain: MSVEITFVEQFQEILQNGKEQIILLNFYAPWAAPCKQMNQVFDQFAKDTKNAVFLKIEAEKFSDIAESFDVNAVPLFVLIHGAKVLARISGANPQKLKAAIDEYIQPLISQISSTNASVETQVNSVQTTNTTSNTSKAPNGLDSELNERLSTLTNAHNVMLFLKGTPSEPACGFSRKLVGLLREQNVQYGFFNILADDSVRQGLKVFSDWPTFPQLYIKGEFVGGLDIVSEMIENGELQEMLPN

What was measured:
SEC = target: the molecule itself; test: SEC
[1] = target: T1, S. pombe Php4 (WT), 6xHis-tagged; test: SPR
S. pombe Grx4 (WT) = target: B1; test: CD-monitored titration

Kd [1] [µM] | koff [1] [s⁻¹] | kon [1] [M⁻¹ s⁻¹] | binding result (S. pombe Grx4 (WT)) | Binder | binding result (SEC)
34.1 | 0.00219 | 64.3 | – | B1 | binds
897 | 0.00916 | 10.2 | – | S. pombe Grx4 (C172A) (natural protein, UniProt O74790 1-244, looked up) MSVEITFVEQFQEILQNGKEQIILLNFYAPWAAPCKQMNQVFDQFAKDTKNAVFLKIEAEKFSDIAESFDVNAVPLFVLIHGAKVLARISGANPQKLKAAIDEYIQPLISQISSTNASVETQVNSVQTTNTTSNTSKAPNGLDSELNERLSTLTNAHNVMLFLKGTPSEPAAGFSRKLVGLLREQNVQYGFFNILADDSVRQGLKVFSDWPTFPQLYIKGEFVGGLDIVSEMIENGELQEMLPN | –
– | – | – | binds | S. cerevisiae Fra2^Δ1–35 (domain or fragment, UniProt P53082 36-120, looked up) MPVTEQGLRERIESAIPQVYHIIVTDLSYGCGQSFDIVVVSDFFQGKSKLMRSRAVNKAVKEELQEIHAFSCKCYTEEEWSKIVV | –

From PMC5595146 (Metallomics : integrated biometal science, 2017)
